Experimental findings from the supplement of paper PMC7877785 are described below.

The data set in a line: self-splicing fitness, log relative to wild type (ln ratio); higher = more splicing; Tetrahymena group I intron in knt gene, E. coli kanamycin selection, DiMSum; sequences stand for … in CUCUCU…GGAGGGAAAAGUUAUCAGGCAUGCACCUGGUAGCUAGUCUUUAAACCAAUAGAUUGCAUCGGUUUAAAAGGCAAGACCGUCAAAUUGCGGGAAAGGGGUCAACAGCCGUUCAGUACCAAGUCUCAGGGGAAACUUUGAGAUGGCCUUGCAAAGGGUAUGGUAAUAAGCUGACGGACAUGGUCCUAACCACGCAGCCAAGUCCUAAGUCAACAGAUCUUCUGUUGAUAUGGAUGCAGUUCACAGACUAAAUGUCGGUCGGGGAAGAUGUAUUCUUCUCAUAAGAUAUAGUCGGACCUCUCCUUAAUGGGAGCUAGCGGAUGAAGUGAUGCAACACUGGAGCCGCUGGGAACUAAUUUGUAUGCGAAAGUAUAUUGAUUAGUUUUGGAGUACUCGUGGUCG
The method in brief:
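The eight P1ex-region nucleotides of an intron in the knt kanamycin-resistance gene on pET-22b(+) were all randomised and the library put into E. coli BL21(DE3). Six replicate transformations were grown overnight at 37°C or 30°C on LB agar with or without 25 μg/mL kanamycin, together with 100 μg/mL carbenicillin, 50 μM IPTG and 0.2% rhamnose. Colonies were pooled and amplicon-sequenced on an Illumina HiSeq 2500. Fitness from DiMSum is the error-weighted combination of wild-type-normalised replicate fold changes, kanamycin over none.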

± gives the uncertainty stated by the source.

ACAAAGCAAUAUUACGCUCA: the “self-splicing fitness (ln)” value by setting is: (30 °C) -0.782 ± 0.088; (37 °C) 0.156 ± 0.11.
For UCCGAGCAAUAUUACGAGCA the same measures were -1.02 ± 0.1 and -0.767 ± 0.097.
For ACCGAGCAAUAUUACGAGCG, the “self-splicing fitness (ln)” value was -3.24 ± 0.21 (30 °C) and -0.734 ± 0.16 (37 °C).
In the same order, the values of UAGGAGCAAUAUUACGAGGG are -3.6 ± 0.42 and -2.35 ± 0.33.
With AAUCAGCAAUAUUACGAUGG, the “self-splicing fitness (ln)” value by setting is: (30 °C) -1.49 ± 0.1; (37 °C) -0.853 ± 0.12.
For AUUGAGCAAUAUUACGUUGU the same measures were -3.5 ± 0.14 and -2.1 ± 0.16.
For CUCUAGCAAUAUUACGUGAG, the “self-splicing fitness (ln)” value is -3.45 ± 0.18 (30 °C) and -2.12 ± 0.19 (37 °C).
In the same order, the values of GUCGAGCAAUAUUACGGGCG are -2.88 ± 0.11 and -1.36 ± 0.12.
In the same order, the values of GCCAAGCAAUAUUACGUAAA are -1.63 ± 0.1 and -0.72 ± 0.13.
For CAGCAGCAAUAUUACGCCUC the same measures were -1.98 ± 0.13 and -0.839 ± 0.14.
On to ACAGAGCAAUAUUACGUAGC, for which the “self-splicing fitness (ln)” value is, setting by setting: (30 °C) -3.27 ± 0.33; (37 °C) -2.56 ± 0.41.
In the same order, the values of UUGGAGCAAUAUUACGGACU are -3.18 ± 0.34 and -2.65 ± 0.35.
For CAAUAGCAAUAUUACGUCCG the same measures were -0.215 ± 0.1 and -0.267 ± 0.13.
With UGGAAGCAAUAUUACGCUCA, the “self-splicing fitness (ln)” value (30 °C) is -0.562 ± 0.11 and the “self-splicing fitness (ln)” value (37 °C) was -0.00417 ± 0.13.
For AAUGAGCAAUAUUACGCGUA the same measures were -2.4 ± 0.27 and -1.62 ± 0.25.
With CAGCAGCAAUAUUACGCUUU, the “self-splicing fitness (ln)” value reads like this: (30 °C) -2.76 ± 0.14; (37 °C) -1.63 ± 0.12.
In the same order, the values of CAGCAGCAAUAUUACGCGGU are -1.52 ± 0.1 and -1.74 ± 0.18.
For CGAGAGCAAUAUUACGGUAA the same measures were -1.51 ± 0.25 and -2.55 ± 0.28.
Take AGGAAGCAAUAUUACGGAUC: the “self-splicing fitness (ln)” value reads like this: (30 °C) -1.75 ± 0.16; (37 °C) -1.02 ± 0.22.
As for CAAUAGCAAUAUUACGGUCA, the “self-splicing fitness (ln)” value (30 °C) was -3.09 ± 0.18 and the “self-splicing fitness (ln)” value (37 °C) was -1.55 ± 0.12.
For CGGAAGCAAUAUUACGAUGA the same measures were -1.91 ± 0.11 and -0.379 ± 0.096.
In the same order, the values of GGCAAGCAAUAUUACGCUGA are -1.13 ± 0.12 and -1.27 ± 0.14.
In the same order, the values of AAUAAGCAAUAUUACGAUCA are -0.507 ± 0.12 and 0.576 ± 0.13.
As for UUGCAGCAAUAUUACGGGCA, the “self-splicing fitness (ln)” value (30 °C) was -1.31 ± 0.13 and the “self-splicing fitness (ln)” value (37 °C) is -0.764 ± 0.14.
In the same order, the values of UGUUAGCAAUAUUACGUGCU are -1.95 ± 0.13 and -1.51 ± 0.13.
Turning to GUAGAGCAAUAUUACGUGGA, the “self-splicing fitness (ln)” value (37 °C) is -3.25 ± 0.3.
With CAUUAGCAAUAUUACGGUCC, the “self-splicing fitness (ln)” value (37 °C) is -1.72 ± 0.34.
CACGAGCAAUAUUACGGGCC: the “self-splicing fitness (ln)” value by setting is: (30 °C) -3.08 ± 0.38; (37 °C) -2.24 ± 0.31.
In the same order, the values of UUCGAGCAAUAUUACGGUGG are -3.36 ± 0.27 and -1.07 ± 0.19.
For the sequence CCUCAGCAAUAUUACGGCUC, the “self-splicing fitness (ln)” value (30 °C) is -2.77 ± 0.16 and the “self-splicing fitness (ln)” value (37 °C) is -2.46 ± 0.29.
In the same order, the values of CUCUAGCAAUAUUACGGAGC are -3.72 ± 0.27 and -3.48 ± 0.26.
Regarding AUACAGCAAUAUUACGAGAC, the “self-splicing fitness (ln)” value by setting is: (30 °C) -4.95 ± 0.41; (37 °C) -1.82 ± 0.18.
For AUUCAGCAAUAUUACGUAAU the same measures were -0.328 ± 0.079 and 0.348 ± 0.11.
In the case of UUCAAGCAAUAUUACGGCUG, the “self-splicing fitness (ln)” value by setting is: (30 °C) -2.62 ± 0.15; (37 °C) -1.52 ± 0.2.
For CUCCAGCAAUAUUACGCUGU the same measures were -4.01 ± 0.34 and -2.97 ± 0.34.
For GUGAAGCAAUAUUACGGCAA the same measures were 0.587 ± 0.084 and 0.552 ± 0.11.
As to AAAAAGCAAUAUUACGAACA, the “self-splicing fitness (ln)” value reads like this: (30 °C) -0.675 ± 0.092; (37 °C) -0.407 ± 0.11.
On to CCUUAGCAAUAUUACGAGAG, for which the “self-splicing fitness (ln)” value is, setting by setting: (30 °C) -2.05 ± 0.11; (37 °C) -1.42 ± 0.1.
